Experiments:
Format in all cases: cell-based
Cav2.3 = biological target: T1, Cav2.3 (Homo sapiens, UniProt Q15878); experiment: Calcium current density in heterologous expression system, Cav2.3; details: heterologous expression systems
T1 construct: expressed in transfected cells

Cav3.1 = biological target: T2, Cav3.1 (Homo sapiens, UniProt O43497); experiment: Whole-cell patch clamp of Cav3.1 LVA current in HEK/Cav3.1 cells transfected with γ6/γ4 chimeric and truncated constructs (Example 2); details: Table 1 (Example 2)
T2 construct: expressed in transfected cells; host or cells: HEK-293, stably transfected
Experimental: Transfection—HEK-293 cell lines stably transfected with Cav3.1 were transiently transfected with vectors containing γ subunit cDNAs using Lipofectamine 2000 reagent (Invitrogen) as per the manufacturer's recommendations. HEK-293 cells were grown to 70-80% confluence before transfection.
Electrophysiology—Whole-cell calcium currents were recorded using an Axopatch-1D patch clamp system and Clampex 8.0 software. Pipettes were fabricated from borosilicate glass and had typical resistances of 2-4 MΩ. The pipette solution contained (in mM): 130 NaCl, 10 EGTA, 2 MgCl2, 1 CaCl2, 10 HEPES, 3 Tris-ATP, and 0.3 Tris-GTP, adjusted to pH 7.4 with NaOH and 280 mOsm with sucrose. The bath solution contained (in mM): 137 NaCl, 1 KCl, 1 MgCl2, 0.33 NaH2PO4, 2 CaCl2, 10 HEPES, and 30 μM TTX, adjusted to pH 7.4 with NaOH and 280 mOsm with sucrose.
Recordings from HEK-293 cells were made 48-96 hours post-transfection, at which time expression, as measured by GFP fluorescence, peaked. All HEK-293 data is from current records in which pipette and whole-cell capacitance were about 100% compensated and series resistance was compensated to >80%. Series resistance values were typically <10 MΩ (megaohms), and no records were used in which the voltage error (as defined by Ver=Imax×Ra) was greater than 5 mV. The holding potential of all protocols used for HEK-293 cells was −100 mV except for steady-state inactivation protocols where the holding potential was −120 mV. Current-voltage relationships for all HEK-293 cells were measured using 50 ms test depolarizations. Peak current amplitudes for activation curves were determined by fitting tail currents, elicited by stepping membrane voltage from varying test potentials to −60 mV, with the Boltzman equation. Test potential steps for activation protocols were of varied durations, corresponding to the time to peak of the elicited current. Inactivation curves were determined by fitting peak amplitudes of currents, observed in a test pulse to −20 mV, following 500 ms steps to varying potentials, with the Boltzman equation. Time to peak was determined using the current-voltage protocol described above. Inactivation time constants were determined by fitting the decay phase of currents to an exponential equation and deactivation time constants were determined by fitting the decay phase of tail currents to an exponential equation. […] When a double exponential equation was used to fit Cav3.1 tail currents, the magnitude of the fast component was about 10 fold that of the slow component. Currents were recorded at 40 kHz and on-line filtered at 5. In some cases currents were off-line filtered at 1 kHz to further reduce noise. Current-voltage relationships and tail currents were recorded from HEK cells using an on-line P/−4 subtraction procedure. The average membrane capacitance of untransfected HEK-293 cells in pilot experiments was 12.5+/−0.4 pF (n=8).
Statistical Analysis—All data are reported as mean±SEM and tested for significance by one-way ANOVA. A value of P<0.05 was considered significant and when significant p-values were encountered groups were compared using the Tukey post-hoc test.

Cav3.2 = biological target: T3, Cav3.2 (Homo sapiens, UniProt O95180); experiment: Calcium current density in heterologous expression system, Cav3.2; details: heterologous expression systems
T3 construct: expressed in transfected cells; host or cells: heterologous expression system (HEK-293 stably transfected with Cav3.2 is mentioned)

T2 sequence (O43497 whole entry, the tested form may be a part): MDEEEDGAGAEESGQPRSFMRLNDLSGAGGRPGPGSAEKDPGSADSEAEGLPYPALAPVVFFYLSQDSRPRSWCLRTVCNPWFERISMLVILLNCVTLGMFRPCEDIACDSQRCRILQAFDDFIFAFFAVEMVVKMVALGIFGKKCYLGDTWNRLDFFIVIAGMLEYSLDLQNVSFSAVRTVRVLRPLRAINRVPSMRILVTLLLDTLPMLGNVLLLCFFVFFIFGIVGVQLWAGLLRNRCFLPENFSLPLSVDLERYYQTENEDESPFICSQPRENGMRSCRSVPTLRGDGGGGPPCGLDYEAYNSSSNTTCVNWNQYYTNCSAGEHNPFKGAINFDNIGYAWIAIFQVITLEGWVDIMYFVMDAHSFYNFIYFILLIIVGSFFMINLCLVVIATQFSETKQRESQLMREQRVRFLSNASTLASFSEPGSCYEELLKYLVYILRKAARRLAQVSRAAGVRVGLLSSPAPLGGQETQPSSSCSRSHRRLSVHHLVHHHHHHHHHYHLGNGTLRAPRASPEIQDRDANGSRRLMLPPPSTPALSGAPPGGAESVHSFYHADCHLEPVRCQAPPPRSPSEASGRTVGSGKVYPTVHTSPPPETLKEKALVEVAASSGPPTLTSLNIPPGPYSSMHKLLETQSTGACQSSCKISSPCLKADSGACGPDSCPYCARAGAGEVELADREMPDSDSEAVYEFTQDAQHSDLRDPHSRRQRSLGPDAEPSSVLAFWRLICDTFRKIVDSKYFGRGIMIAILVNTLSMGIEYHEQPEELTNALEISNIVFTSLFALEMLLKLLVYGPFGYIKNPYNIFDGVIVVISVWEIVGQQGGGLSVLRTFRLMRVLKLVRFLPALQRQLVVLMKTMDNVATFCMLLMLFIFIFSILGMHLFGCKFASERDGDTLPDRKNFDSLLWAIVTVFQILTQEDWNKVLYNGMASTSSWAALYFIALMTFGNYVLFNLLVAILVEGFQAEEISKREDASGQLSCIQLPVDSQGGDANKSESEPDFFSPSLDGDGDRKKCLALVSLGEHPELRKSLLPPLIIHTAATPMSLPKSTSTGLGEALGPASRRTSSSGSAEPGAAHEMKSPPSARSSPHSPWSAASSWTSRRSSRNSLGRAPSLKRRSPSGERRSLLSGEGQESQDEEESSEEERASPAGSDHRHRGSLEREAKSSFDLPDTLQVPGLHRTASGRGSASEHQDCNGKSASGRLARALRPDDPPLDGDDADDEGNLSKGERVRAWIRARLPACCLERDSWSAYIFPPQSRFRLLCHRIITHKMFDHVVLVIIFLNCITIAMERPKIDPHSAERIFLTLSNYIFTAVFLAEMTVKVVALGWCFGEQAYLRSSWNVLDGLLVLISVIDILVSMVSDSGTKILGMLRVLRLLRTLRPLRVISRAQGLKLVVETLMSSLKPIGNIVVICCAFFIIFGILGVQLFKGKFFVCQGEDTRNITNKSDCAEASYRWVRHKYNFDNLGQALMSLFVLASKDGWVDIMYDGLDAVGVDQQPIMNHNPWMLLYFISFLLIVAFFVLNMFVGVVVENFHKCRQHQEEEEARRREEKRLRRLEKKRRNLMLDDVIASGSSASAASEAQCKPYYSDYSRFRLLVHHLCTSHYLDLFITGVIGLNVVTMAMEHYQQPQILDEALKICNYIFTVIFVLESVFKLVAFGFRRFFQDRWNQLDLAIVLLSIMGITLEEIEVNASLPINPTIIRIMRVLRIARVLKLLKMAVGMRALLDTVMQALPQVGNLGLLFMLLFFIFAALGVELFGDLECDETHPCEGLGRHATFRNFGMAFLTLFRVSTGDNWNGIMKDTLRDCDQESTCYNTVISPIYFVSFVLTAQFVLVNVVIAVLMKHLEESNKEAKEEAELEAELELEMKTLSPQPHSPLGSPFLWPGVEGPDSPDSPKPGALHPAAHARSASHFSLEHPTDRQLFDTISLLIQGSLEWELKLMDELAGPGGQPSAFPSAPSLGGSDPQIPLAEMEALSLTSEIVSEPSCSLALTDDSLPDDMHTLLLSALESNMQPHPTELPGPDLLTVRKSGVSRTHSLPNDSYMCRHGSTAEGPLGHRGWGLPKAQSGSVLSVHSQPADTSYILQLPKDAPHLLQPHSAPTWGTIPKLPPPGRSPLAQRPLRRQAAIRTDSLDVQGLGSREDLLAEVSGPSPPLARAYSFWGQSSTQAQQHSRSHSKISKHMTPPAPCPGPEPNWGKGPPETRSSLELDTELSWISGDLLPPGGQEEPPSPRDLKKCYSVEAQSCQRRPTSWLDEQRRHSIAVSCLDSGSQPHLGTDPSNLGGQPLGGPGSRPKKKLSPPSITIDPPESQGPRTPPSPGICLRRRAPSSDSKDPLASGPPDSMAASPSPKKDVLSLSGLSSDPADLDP
T1 sequence (Q15878 whole entry): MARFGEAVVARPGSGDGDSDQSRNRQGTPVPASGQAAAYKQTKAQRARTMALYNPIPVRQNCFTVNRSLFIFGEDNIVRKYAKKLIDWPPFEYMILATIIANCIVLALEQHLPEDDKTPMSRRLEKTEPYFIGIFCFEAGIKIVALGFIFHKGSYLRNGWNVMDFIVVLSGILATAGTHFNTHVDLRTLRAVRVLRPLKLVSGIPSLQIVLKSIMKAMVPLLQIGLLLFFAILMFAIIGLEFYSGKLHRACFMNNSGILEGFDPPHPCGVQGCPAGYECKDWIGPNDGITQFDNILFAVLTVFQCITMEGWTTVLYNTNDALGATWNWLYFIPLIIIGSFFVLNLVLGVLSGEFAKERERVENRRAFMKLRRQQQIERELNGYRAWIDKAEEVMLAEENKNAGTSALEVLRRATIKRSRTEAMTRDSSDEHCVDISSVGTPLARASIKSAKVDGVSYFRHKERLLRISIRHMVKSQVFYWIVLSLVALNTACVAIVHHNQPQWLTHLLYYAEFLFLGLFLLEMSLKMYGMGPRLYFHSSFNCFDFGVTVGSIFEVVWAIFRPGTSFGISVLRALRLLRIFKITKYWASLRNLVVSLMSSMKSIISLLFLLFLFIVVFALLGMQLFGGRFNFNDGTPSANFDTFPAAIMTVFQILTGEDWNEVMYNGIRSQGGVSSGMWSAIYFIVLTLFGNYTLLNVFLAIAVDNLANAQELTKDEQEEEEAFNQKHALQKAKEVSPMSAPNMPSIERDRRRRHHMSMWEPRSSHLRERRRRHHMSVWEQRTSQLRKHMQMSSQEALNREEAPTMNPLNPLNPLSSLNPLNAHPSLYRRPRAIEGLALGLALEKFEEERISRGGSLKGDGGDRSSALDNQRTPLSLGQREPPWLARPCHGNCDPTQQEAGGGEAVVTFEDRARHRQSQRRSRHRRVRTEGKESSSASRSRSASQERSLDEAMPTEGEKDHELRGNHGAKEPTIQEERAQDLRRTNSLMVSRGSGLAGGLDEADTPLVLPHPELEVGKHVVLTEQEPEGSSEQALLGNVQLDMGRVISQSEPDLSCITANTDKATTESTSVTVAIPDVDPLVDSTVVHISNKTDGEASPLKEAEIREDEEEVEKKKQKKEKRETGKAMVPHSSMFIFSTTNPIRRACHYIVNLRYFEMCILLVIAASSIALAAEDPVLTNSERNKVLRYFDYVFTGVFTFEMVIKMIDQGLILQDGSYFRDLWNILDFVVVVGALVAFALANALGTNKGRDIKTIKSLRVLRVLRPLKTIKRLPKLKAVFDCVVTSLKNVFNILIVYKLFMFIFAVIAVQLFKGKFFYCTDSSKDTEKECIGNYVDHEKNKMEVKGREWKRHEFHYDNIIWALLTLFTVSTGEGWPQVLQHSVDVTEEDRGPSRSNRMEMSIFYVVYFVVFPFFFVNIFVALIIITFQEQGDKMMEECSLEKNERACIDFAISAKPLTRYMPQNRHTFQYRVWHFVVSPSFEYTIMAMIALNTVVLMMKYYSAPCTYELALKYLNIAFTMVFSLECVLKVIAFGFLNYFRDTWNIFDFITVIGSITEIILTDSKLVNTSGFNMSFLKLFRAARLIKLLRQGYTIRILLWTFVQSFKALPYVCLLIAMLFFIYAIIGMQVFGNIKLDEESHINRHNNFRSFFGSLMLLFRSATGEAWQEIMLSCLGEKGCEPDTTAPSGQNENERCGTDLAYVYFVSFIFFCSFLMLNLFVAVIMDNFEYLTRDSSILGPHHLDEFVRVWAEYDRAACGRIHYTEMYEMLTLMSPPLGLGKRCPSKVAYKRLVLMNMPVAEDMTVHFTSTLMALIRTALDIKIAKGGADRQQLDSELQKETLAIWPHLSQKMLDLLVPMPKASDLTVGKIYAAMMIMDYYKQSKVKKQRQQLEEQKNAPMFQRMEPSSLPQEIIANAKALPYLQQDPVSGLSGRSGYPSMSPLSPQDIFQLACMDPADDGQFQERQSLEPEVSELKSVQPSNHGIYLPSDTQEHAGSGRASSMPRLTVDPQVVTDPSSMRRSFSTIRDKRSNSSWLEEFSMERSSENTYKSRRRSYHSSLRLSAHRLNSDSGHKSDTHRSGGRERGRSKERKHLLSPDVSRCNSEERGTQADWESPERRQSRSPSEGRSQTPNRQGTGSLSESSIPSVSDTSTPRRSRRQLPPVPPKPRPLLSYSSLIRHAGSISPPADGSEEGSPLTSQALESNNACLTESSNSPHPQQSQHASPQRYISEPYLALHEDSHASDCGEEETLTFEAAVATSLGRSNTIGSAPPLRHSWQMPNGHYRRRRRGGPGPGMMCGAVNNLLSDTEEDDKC

| Molecule | Effect on Cav2.3 calcium current density (Cav2.3) | Activation V 0.5 (Cav3.1) | Activation k (Cav3.1) | Deactivation tau @ −100 mV, Fast (Cav3.1) | Inactivation V 0.5 (Cav3.1) | Inactivation k (Cav3.1) | Inactivation tau @−20 mV (Cav3.1) | Time to peak @ −20 mV (Cav3.1) | V peak (Cav3.1) | Effect on Cav3.2 calcium current density (Cav3.2) |
| --- | --- | --- | --- | --- | --- | --- | --- | --- | --- | --- |
| γ6L: rat calcium channel γ6 subunit, long isoform (AF361343), SEQ ID NO:48 (protein, listed as Rattus norvegicus) MMWSNFFMQEEDRRRTAVGRRRAQEQQNLGLTPEREGKIKLGLLVAIVGATLAVLAVGTEFWVELNTYKTNGSAVCEAAHLGLWKVCIKRLWQADVPAGRETCGPAELPGEANCTYFKFFTTGENAHIFQRTTKKEVNLAAAVIAVLGLTAMALGCLCVIMVLSKGAEFLLRLGAVCFGLSGLLLFVSLEVFRHSVRALLQGVNPETPPAPRLAYEYSWSLGCGVGAGLILLLGGVCFLLLTLPSWPWRSLCPKRGGPTA | decreased | −36.3 ± 6.2 (n = 4) mV | 12.7 ± 1.5 (n = 4) | 1.54 ± 0.48 (n = 4) ms | −78.5 ± 2.6 (n = 6) mV | 5.4 ± 0.3 (n = 6) | 18.6 ± 1.1 (n = 6) ms | 6.0 ± 0.8 (n = 5) ms | −31.1 ± 3.1 (n = 9) mV | decreased |
| γ4: rat calcium channel γ4 subunit (AF361341), SEQ ID NO:47 (protein, listed as Rattus norvegicus) MVRCDRGLQMLLTTAGAFAAFSLMAIAIGTDYWLYSSAHICNGTNLTMDDGPPPRRARGDLTHSGLWRVCCIEGIYKGHCFRINHFPEDNDYDHDSSEYLLRIVRASSVFPILSTILLLLGGLCIGAGRIYSRKNNIVLSAGILFVAAGLSNIIGIIVYISSNTGDPSDKRDEDKKNHYNYGWSFYFGALSFIVAETVGVLAVNIYIEKNKELRFKTKREFLKASSSSPYSRMPSYRYRRRRSRSSSRSTEASPSRDASPVGLKITGAIPMGELSMYTLSREPLKVTTAASYSPDQDAGFLQMHDFFQQDLKEGFHVSMLNRRTTPV |  | −37.3 ± 0.9 (n = 8) mV | 11.8 ± 0.5 (n = 8) | 1.84 ± 0.28 (n = 8) ms | −79.2 ± 1.5 (n = 7) mV | 6.1 ± 0.2 (n = 7) | 15.8 ± 0.7 (n = 7) ms | 5.2 ± 0.5 (n = 9) ms | −30.6 ± 1.5 (n = 9) mV |  |

— patent US8022177B2, “Peptides and calcium regulation in mammalian cells” (The Board of Trustees of the University of Illinois, priority 2005, dated 2011)
